Source: paper PMC6738421, “Beta-amyloid induces apoptosis of neuronal cells by inhibition of the Arg/N-end rule pathway proteolytic activity” (Aging (Albany NY), 2019)
Blank lines part the entries; values can stand above or below the binder they belong to.

Target: T1, Beta-amyloid peptide Aβ42
T1 construct: beta-amyloid peptide 1-42, a stretch of the amyloid precursor protein; free N-terminus [H2N] and C-terminus [COOH] as printed; Monomerised with HFIP and dissolved in DMSO; for the ITC kinetics treated with 10% NH4OH, lyophilised and resuspended in reaction buffer; source: synthetic peptide, bought: Biopeptide
Assay: ELISA; sandwich ELISA: Aβ42 (1 μM) captured on immobilised anti-Aβ1-17 antibody, Ate1 added for 90 min at 37°C (30 mM KCl, 5 mM MgCl2, 15 μM Arg, 1 mM ATP, 50 mM Hepes pH 7.5), read by loss of the anti-Aβ36-42 detection antibody signal (OD450); without tRNA
Details: both partners purified

binding result: binds
B1: Arginyl-tRNA-protein transferase Ate1, isoform Ate1-1 (enzyme, mouse, UniProt Q9Z2A5-1 1-516, looked up)
chain: MASWSAPSPSLVEYFEGQTSFQCGYCKNKLGSRSYGMWAHSMTVQDYQDLIDRGWRRSGKYVYKPVMDQTCCPQYTIRCHPLQFQPSKSHKKVLKKMLKFLAKGEISKGNCEDEPMDSTVEDAVDGDFALINKLDIKCDLKTLSDLKGSIESEEKEKEKSIKKEGSKEFIHPQSIEEKLGSGEPSHPIKVHIGPKPGKGADLSKPPCRKAREMRKERQRLKRMQQASAAASEAQGQPVCLLPKAKSNQPKSLEDLIFQSLPENASHKLEVRVVRSSPPSPQFRATFQESYQVYKRYQMVVHKDPPDKPTVSQFTRFLCSSPLEAEHPADGPECGYGSFHQQYWLDGKIIAVGVLDILPYCVSSVYLYYDPDYSFLSLGVYSALREIAFTRQLHEKTSQLSYYYMGFYIHSCPKMRYKGQYRPSDLLCPETYVWVPIEQCLPSLDNSKYCRFNQDPEAEDEGRSKELDRLRVFHRRSAMPYGVYKNHQEDPSEEAGVLEYANLVGQKCSERMLLFRH
notes: mouse arginyl-tRNA-protein transferase Ate1, isoform Ate1-1; untagged after cleavage; also called R-transferase Ate1; arginyltransferase Ate1; source: E. coli Rosetta(DE3)pLysS, purified (Ni-NTA, Ub moiety cleaved with Usp2-cc, second Ni-NTA)

binding result: binds
B2: Arginyl-tRNA-protein transferase Ate1, isoform Ate1-3 (enzyme, mouse, UniProt Q9Z2A5-3 1-509, looked up)
chain: MASVVEYKGLKAGYYCGYCESREGKTSCGMWAHSMTVQDYQDLIDRGWRRSGKYVYKPVMDQTCCPQYTIRCHPLQFQPSKSHKKVLKKMLKFLAKGEISKGNCEDEPMDSTVEDAVDGDFALINKLDIKCDLKTLSDLKGSIESEEKEKEKSIKKEGSKEFIHPQSIEEKLGSGEPSHPIKVHIGPKPGKGADLSKPPCRKAREMRKERQRLKRMQQASAAASEAQGQPVCLLPKAKSNQPKSLEDLIFQSLPENASHKLEVRVVRSSPPSPQFRATFQESYQVYKRYQMVVHKDPPDKPTVSQFTRFLCSSPLEAEHPADGPECGYGSFHQQYWLDGKIIAVGVLDILPYCVSSVYLYYDPDYSFLSLGVYSALREIAFTRQLHEKTSQLSYYYMGFYIHSCPKMRYKGQYRPSDLLCPETYVWVPIEQCLPSLDNSKYCRFNQDPEAEDEGRSKELDRLRVFHRRSAMPYGVYKNHQEDPSEEAGVLEYANLVGQKCSERMLLFRH
notes: untagged after cleavage; also called R-transferase Ate1; arginyltransferase Ate1; source: E. coli Rosetta(DE3)pLysS, purified (Ni-NTA, Ub moiety cleaved with Usp2-cc, second Ni-NTA)
